Measured values: PMC6377682, “ASPP proteins discriminate between PP1 catalytic subunits through their SH3 domain and the PP1 C-tail” (Nature Communications, 2019)
Substitutions are numbered along the chain they refer to. Numbers in names are those of the source.

B1: human ASPP1^882-1090 (domain or fragment, UniProt Q96KQ4 882-1090, looked up)
chain: LRVRFNPLALLLDASLEGEFDLVQRIIYEVEDPSKPNDEGITPLHNAVCAGHHHIVKFLLDFGVNVNAADSDGWTPLHCAASCNSVHLCKQLVESGAAIFASTISDIETAADKCEEMEEGYIQCSQFLYGVQEKLGVMNKGVAYALWDYEAQNSDELSFHEGDALTILRRKDESETEWWWARLGDREGYVPKNLLGLYPRIKPRQRTLA
notes: ASPP1, human, residues 882-1090; source: pGEX-6P2 construct; expression and purification described only for ASPP2
B2: ASPP1^K1052E/S1055D (domain or fragment, human, UniProt Q96KQ4 882-1090, looked up)
chain: B1 chain with K171E, S174D
notes: ASPP1, human, residues 882-1090 with n-Src loop residues 1 and 4 changed to the ASPP2 residues
B3: PP1γ2^297-324 C-tail peptide (peptide, UniProt P36873-2 297-324, looked up)
peptide: KPAEKKKPNATRPVTPPRVASGLNPSIQ
notes: PP1 catalytic subunit gamma, testis-specific isoform γ2, human, residues 297-324; source: synthetic peptide (LRI peptide synthesis core facility)
B4: PP1β^297-327 C-tail peptide (peptide, UniProt P62140 297-327, looked up)
peptide: PSEKKAKYQYGGLNSGRPVTPPRTANPPKKR
notes: PP1 catalytic subunit beta, human, residues 297-327; source: synthetic peptide (LRI peptide synthesis core facility)
B5: PP1α^317-330 peptide (peptide)
peptide: RPITPPRNSAKAKK
notes: PP1α, human, residues 324-330; source: synthetic peptide (LRI peptide synthesis core facility)
B6: human iASPP^621-828 (domain or fragment, UniProt Q8WUF5 621-828, looked up)
chain: RRARLNPLVLLLDAALTGELEVVQQAVKEMNDPSQPNEEGITALHNAICGANYSIVDFLITAGANVNSPDSHGWTPLHCAASCNDTVICMALVQHGAAIFATTLSDGATAFEKCDPYREGYADCATYLADVEQSMGLMNSGAVYALWDYSAEFGDELSFREGESVTVLRRDGPEETDWWWAALHGQEGYVPRNYFGLFPRVKPQRSKV
notes: the protein preparation paragraph prints iASPP^608-828 in pGEX-6P2
B7: human ASPP2^920-1120 (domain or fragment, UniProt Q13625 920-1120, looked up)
chain: MRVKFNPLALLLDSSLEGEFDLVQRIIYEVDDPSLPNDEGITALHNAVCAGHTEIVKFLVQFGVNVNAADSDGWTPLHCAASCNNVQVCKFLVESGAAVFAMTYSDMQTAADKCEEMEEGYTQCSQFLYGVQEKMGIMNKGVIYALWDYEPQNDDELPMKEGDCMTIIHREDEDEIEWWWARLNDKEGYVPRNLLGLYPRI
notes: ASPP2, human, residues 920-1120 (RVxF motif, ankyrin repeats, SH3 domain); pGEX-6P2 construct; source: E. coli Rosetta (DE3) pLysS, purified (glutathione-Sepharose, 3C cleavage, SEC); for the crystal co-expressed with PP1α^7-330 in E. coli BL21 (DE3)
B8: ASPP2^E1090K/D1093S (domain or fragment, human, UniProt Q13625 920-1120, looked up)
chain: B7 chain with E171K, D174S
notes: ASPP2, human, residues 920-1120 with n-Src loop mutations; also called double ASPP2 mutant mimicking the ASPP1 n-Src loop
B9: ASPP2^D1091G/E1092P (domain or fragment, human, UniProt Q13625 920-1120, looked up)
chain: B7 chain with D172G, E173P
notes: ASPP2, human, residues 920-1120 with n-Src loop mutations; also called double mutant mimicking the human iASPP n-Src loop
B10: ASPP2^D1091K/E1092V/E1094K (recombinant fragment) (domain or fragment, human, UniProt Q13625 920-1120, looked up)
chain: B7 chain with D172K, E173V, E175K
notes: ASPP2, human, residues 920-1120 with n-Src loop mutations; also called ASPP2^KVK; triple mutant mimicking the C. elegans iASPP n-Src loop
B11: ASPP2^D1093S (domain or fragment, human, UniProt Q13625 920-1120, looked up)
chain: B7 chain with D174S
notes: ASPP2, human, residues 920-1120 with an n-Src loop mutation; also called single ASPP2 mutant mimicking the ASPP1 n-Src loop
B12: PP1α^317-323 core PPII motif peptide (peptide)
peptide: RPITPPR
notes: source: synthetic peptide (LRI peptide synthesis core facility)
B13: PP1γ1^298-323 C-tail peptide (peptide, UniProt P36873 298-323, looked up)
peptide: PAEKKKPNATRPVTPPRGMITKQAKK
notes: as for B12
B14: PP1α^301-330 C-tail peptide (peptide, UniProt P62136 301-330, looked up)
peptide: KNKGKYGQFSGLNPGGRPITPPRNSAKAKK
notes: also called PP1α C-tail; source: synthetic peptide (LRI peptide synthesis core facility)
B15: PP1α^301-330 K329A peptide (peptide, UniProt P62136 301-330, looked up)
peptide: B14 peptide with K29A
notes: as for B12
B16: PP1α^301-330 3KA peptide (peptide, UniProt P62136 301-330, looked up)
peptide: B14 peptide with K27A, K29A, K30A
notes: also called PP1α 3KA; source: synthetic peptide (LRI peptide synthesis core facility)
B17: PP1α^301-330 K327A peptide (peptide, UniProt P62136 301-330, looked up)
peptide: B14 peptide with K27A
notes: also called PP1α^K327 to alanine; source: synthetic peptide (LRI peptide synthesis core facility)
B18: PP1α^301-330 K330A peptide (peptide, UniProt P62136 301-330, looked up)
peptide: B14 peptide with K30A
notes: as for B12

Legend:
Conditions in all cases: both partners purified
[1] = target: T1, human PP1α^7-330 (human, UniProt P62136 7-330); assay: BLI; HIS tagged PP1α, PP1β or PP1γ1 (50 μg/ml) immobilised on Ni-NTA biosensors, ASPP in solution in kinetics buffer, 25 °C, 1000 rpm; global fit 1:1 model; apparent KD
T1 construct: PP1 catalytic subunit alpha, human, residues 7-330; His6 tag kept for ITC and BLI (captured on Ni-NTA sensors); also called full-length PP1α (as the text calls it); source: for the crystal co-expressed with ASPP2^920-1120 in E. coli BL21 (DE3), purified (Ni-NTA, glutathione-Sepharose, SEC)

[2] = target: T2, human PP1β^6-327 (human, UniProt P62140 6-327); assay: as above
T2 construct: PP1 catalytic subunit beta, human, residues 6-327; source: bacterial culture with GroEL/GroES chaperone; purification for BLI not described

[3] = target: T3, human PP1γ1^7-323 (human, UniProt P36873 7-323); assay: as above
T3 construct: source: bacterial culture with GroEL/GroES chaperone; purification for BLI not described

[4] = target: B7; assay: ITC; PP1 peptides (350–550 μM) titrated into ASPP2^920-1120 (40 μM), 20 °C; 25 mM Tris pH 8.0, 200 mM NaCl, 0.5 mM TCEP; single binding site model; ASPP2 mutants and iASPP in place of ASPP2 for Fig. 6e
[5] = target: T1, human PP1α^7-330; assay: ITC; ASPP2 (25 μM) titrated into His6-tagged PP1 (3–4 μM), 25 °C; 20 mM Tris pH 8, 500 mM NaCl, 0.5 mM TCEP, 1 mM MnCl2
[6] = target: B6; assay: ITC; PP1 peptides (350–550 μM) titrated into ASPP2^920-1120 (40 μM), 20 °C; 25 mM Tris pH 8.0, 200 mM NaCl, 0.5 mM TCEP; single binding site model; ASPP2 mutants and iASPP in place of ASPP2 for Fig. 6e
[7] = target: B9; assay: as above

Binder: B1
binding result [1]: binds
binding result [2]: binds
binding result [3]: binds

Binder: B2
binding result [1]: binds

Binder: B3
fold lower affinity than PP1α^301-330 (143 nM) [4]: 15 fold

Binder: B4
fold lower affinity than PP1α^301-330 (143 nM) [4]: 7 fold

Binder: B5
Kd [4]: 270 nM

Binder: B6
Kd [1]: 2.6 nM
fold lower koff than ASPP2 on PP1α [1]: 110 fold
fold lower kon than ASPP2 on PP1α [1]: 7 fold
half-life of the complex [1]: 58 min
fold preference for PP1α and PP1β over PP1γ1 [3]: 2 fold

Binder: B7
Kd [1]: 13.6 nM
half-life of the complex [1]: 0.517 min
fold lower affinity than for PP1α (13.6 nM) [2]: 13 fold
fold lower affinity than for PP1α (13.6 nM) [3]: 14 fold
Kd [5]: 6.1 nM

Binder: B8
binding result [1]: binds

Binder: B9
binding result [1]: binds

Binder: B10
Kd [1]: 8200 nM

Binder: B11
binding result [1]: binds

Binder: B12
Kd [4]: 5650 nM

Binder: B13
fold lower affinity than PP1α^301-330 (143 nM) [4]: 5 fold

Binder: B14
Kd [6]: 395 nM
binding result [7]: binds
Kd [4]: 143 nM

Binder: B15
binding result [4]: binds

Binder: B16
Kd [6]: 690 nM
Kd [4]: 1900 nM

Binder: B17
fold decrease in affinity against PP1α^301-330 [4]: 4 fold

Binder: B18
binding result [4]: binds
